# Reference: PMC12491437 (Nature Communications, 2025)
# Values joined by “and” are separate entries in the source; they are usually repeats but may differ in a detail not shown here. Equal entries are not always repeated.
# B1: D2R V96S/V97C, FLAG-D2R-Rluc8 / FLAG-D2R-Venus (receptor, UniProt P14416 1-443, looked up)
# chain: MDPLNLSWYDDDLERQNWSRPFNGSDGKADRPHYNYYATLLTLLIAVIVFGNVLVCMAVSREKALQTTTNYLIVSLAVADLLVATLVMPWVVYLESCGEWKFSRIHCDIFVTLDVMMCTASILNLCAISIDRYTAVAMPMLYNTRYSSKRRVTVMISIVWVLSFTISCPLLFGLNNADQNECIIANPAFVVYSSIVSFYVPFIVTLLVYIKIYIVLRRRRKRVNTKRSSRAFRAHLRAPLKGNCTHPEDMKLCTVIMKSNGSFPVNRRRVEAARRAQELEMEMLSSTSPPERTRYSPIPPSHHQLTLPDPSHHGLHSTPDSPAKPEKNGHAKDHPKIAKIFEIQTMPNGKTRTSLKTMSRRKLSQQKEKKATQMLAIVLGVFIICWLPFFITHILNIHCDCNIPPVLYSAFTWLGYVNSAVNPIIYTTFNIEFRKAFLKILHC
# notes: D2 dopamine receptor; mutant made from the FLAG-D2R-Rluc8 plasmid by site-directed mutagenesis; The mutant was also moved into the FLAG-D2R-Venus plasmid for saturation BRET; also called Mut2; D2R-Rluc8 V96S/V97C; source: HEK293, transfected; in intact cells (BRET, PD-PALM) and in lysate (Western blot); not shown: FLAG, N-terminal, kept; Rluc8 (donor copy)
# Experiments:
# [1] = biological target: D2R V96S, FLAG-D2R-Rluc8 / FLAG-D2R-Venus (UniProt P14416); test: FRET or BRET; β-arrestin recruitment BRET in HEK293 cells: D2R-Rluc8 donor, βarr1-YFP or βarr2-YFP acceptor, 5 μM coelenterazine-h; basal (PBS) and after quinpirole (10 μM time course over 5 min, fitted to a one-phase association; 1 nM-1 mM concentration response)
# [2] = biological target: D2R Y93C, FLAG-D2R-Rluc8 / FLAG-D2R-Venus (UniProt P14416); test: as above
# [3] = biological target: D2 dopamine receptor (D2R) wild type, FLAG-D2R-Rluc8 / FLAG-D2R-Venus (UniProt P14416); test: as above
# [4] = biological target: D2R V96C, FLAG-D2R-Rluc8 / FLAG-D2R-Venus (UniProt P14416); test: as above
# [5] = biological target: D2R V97C, FLAG-D2R-Rluc8 (UniProt P14416); test: as above
# [6] = biological target: the molecule itself; test: PD-PALM (single-molecule localisation microscopy, TIRF, neighbourhood analysis); cell surface FLAG-D2R on HEK293 cells labelled with anti-FLAG-CAGE500 (1:1), fixed; Getis-Franklin neighbourhood analysis, search radius 50 nm; basal or after 5 min 10 μM quinpirole
Molecule,half time of quinpirole-induced recruitment [1],initial rate of quinpirole-induced recruitment (BRET ratio units per second) [1],"k (rate constant of quinpirole-induced recruitment, one-phase association fit) [1]",half time of quinpirole-induced recruitment [2],initial rate of quinpirole-induced recruitment (BRET ratio units per second) [2],"k (rate constant of quinpirole-induced recruitment, one-phase association fit) [2]",half time of quinpirole-induced recruitment [3],half time of quinpirole-induced recruitment [4],initial rate of quinpirole-induced recruitment (BRET ratio units per second) [4],"k (rate constant of quinpirole-induced recruitment, one-phase association fit) [4]",half time of quinpirole-induced recruitment [5],initial rate of quinpirole-induced recruitment (BRET ratio units per second) [5],"k (rate constant of quinpirole-induced recruitment, one-phase association fit) [5]",increase of receptors in oligomers relative to D2R WT [6]
β-arrestin-2-YFP (from UniProt P32121 1-409) (natural protein),39.4 s,0.0007,0.027 s⁻¹,34.6 s,0.000113,0.00333 s⁻¹,68.4 s and 30.3 s and 41.1 s,35.5 s,0.001,0.02 s⁻¹,32.7 s,0.000181,0.00443 s⁻¹,–
B1,–,–,–,–,–,–,–,–,–,–,–,–,–,~6%
